Data published in patent US20220235344A1, “TRYPSIN VARIANTS WITH IMPROVED ENZYMATIC PROPERTIES” (BIOPHARMA TRANSLATIONSINSTITUT DESSAU FORSCHUNGS GMBH, priority 2018, published 2022).
“And” between values parts separate entries of the source, which are not always exact repeats. Equal values may be shown once.

Columns and labels:
[1] = target: T1, Bz-PGGYRAHAG-OH (acyl donor) / H-RAHAK-OH (acyl acceptor) (Rattus norvegicus, UniProt P00763, D194K/K66E/Y45H/Y65H); assay: Model transamidation at high and low substrate concentrations, Trypsiligase II; format: biochemical; conditions: for product yield (%) / kcat, AL^app (mkat/mol) / kcat, AL^app/kcat, HL^app / kcat, HL^app (mkat/mol): 0.1 mM ZnCl2
T1 construct: monomeric enzyme species (about 24 kDa); made in house; host or cells: Pichia pastoris X-33 (pPICZalphaA, secreted)
T1 sequence (P00763 24-246 Y45H/Y65H/K66E/D194K): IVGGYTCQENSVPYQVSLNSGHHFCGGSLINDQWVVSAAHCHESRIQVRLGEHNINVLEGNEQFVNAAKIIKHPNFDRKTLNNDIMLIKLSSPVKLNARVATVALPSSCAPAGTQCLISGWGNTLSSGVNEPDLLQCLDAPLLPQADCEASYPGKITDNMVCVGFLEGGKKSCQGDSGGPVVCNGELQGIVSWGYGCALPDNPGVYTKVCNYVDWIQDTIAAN
Experimental: (§1) Model transamidation reactions were performed in a solution containing 15 to 250 μM acyl donor, 2 eq. of the corresponding acyl acceptor, varying concentrations of trypsin variant, 100 mM HEPES/NaOH pH 7.8, ±0.1 mM ZnC12, 100 mM NaCl, 10 mM CaCl2) at 30° C. Acyl donor and acyl acceptor had the same amino acids in P1′-P3′ position, e.g. Bz-[…]+H-RAHAK-OH or Bz-[…]+H-RKKAK-OH. Variations are indicated. The acyl acceptor could be equipped with a 2,4-Dinitrophenyl group (DNP) at the side chain of the terminal lysine, e.g. H-RAHAK(DNP)-OH or H-RKKAK(DNP)-OH. The reactions were started by the addition of enzyme. To record the time course of product formation and/or for kinetic evaluation of the reaction several aliquots of the reaction mixture were quenched with 25% (v/v) acetic acid at distinct time points within up to 4 hours. The composition of the reaction mixture was analyzed by UPCL with method I or II, depending on the absence (method 1) or presence (method II) of a 2,4-dinitrophenyl group within the acyl acceptor (see example 1). Measurements were performed as duplicates and errors were less than 5%.
The suitability of variant A2C8 and K7F11 as transamidases was further investigated in comparison to the native Trypsiligase II. Therefore the enzymatic parameters for the catalyzed transamidation reaction were determined by a model transamidation reaction using peptide substrates with the preferred recognition motive. In addition the model transamidation reaction was performed at high (250 μM) and low (15 μM) substrate concentrations to check, whether the new biocatalysts could also efficiently catalyze the desired reaction at low substrate concentration, which is a crucial requirement for the modification of therapeutic proteins. […] It was assumed that an improved transamidation activity is reached by introducing mutations which improve the affinity of the biocatalyst for the nucleophilic peptide and/or reduce its hydrolysis activity. Therefore corresponding experimental data describing both parameters for the native Trypsiligase II as well as variant A2C8 were determined.

[2] = target: T2, Bz-PGGYRAHAG-OH (acyl donor) / H-RAHAK(DNP)-OH (acyl acceptor) (Rattus norvegicus, UniProt P00763, D194K/K66E/Y45H/Y65H); assay: Maximum product yield of transamidation (Table 7); format: biochemical; conditions: Zinc ions (100 μM): yes; two equivalents of acyl acceptor and 250 μM acyl donor
T2 construct: made in house; host or cells: Pichia pastoris X-33
T2 sequence (P00763 24-246 Y45H/Y65H/K66E/D194K): T1 sequence (P00763 24-246 Y45H/Y65H/K66E/D194K)
Experimental: as §1

H-RAHAK(DNP)-OH = target: T3, H-RAHAK(DNP)-OH
T3 chain: RAHAK

[3] = target: T4, Bz-PGGYRAHAG-OH (acyl donor) (Rattus norvegicus, UniProt P00763, D194K/K66E/Y45H/Y65H); assay: Turnover rate of the hydrolysis reaction in the absence of a nucleophilic peptide; format: biochemical; conditions: Zinc ions (100 μM): yes; varying Bz-PGGYRAHAG-OH, 2 μM trypsin variant, no nucleophilic peptide
T4 construct: made in house; host or cells: Pichia pastoris X-33
T4 sequence (P00763 24-246 Y45H/Y65H/K66E/D194K): T1 sequence (P00763 24-246 Y45H/Y65H/K66E/D194K)
Experimental: (§2) Hydrolysis reactions were performed in a solution containing varying concentrations of the acyl donor Bz-[…]-OH (0-5000 μM for Trypsiligase II, 0-1500 μM for variant A2C8), 2 μM trypsin variant, 100 mM HEPES/NaOH pH 7.8, 100 mM NaCl, 10 mM CaCl2 at 30° C. In case of Trypsiligase II the reactions were performed in the presence of 100 μM ZnCl2. The reaction was started by the addition of enzyme. For kinetic evaluation of the reaction several aliquots of the reaction mixture were quenched with 25% (v/v) acetic acid at distinct time points within 30 minutes. The composition of the reaction mixture was analyzed by UPCL using method I (see example 1). UV absorption of the N-terminal benzoyl-group (Bz-), which is present in the acyl donor as well as in the hydrolysis product, was detected at 254 nm. To determine the turnover rate of the hydrolysis reaction (kcat,HL) the initial rates for the hydrolysis reaction were plotted against the corresponding acyl donor concentration and fitted to the Michaelis Menten equation. Measurements were performed as duplicates and errors were less than 5%.

[4] = system: R1-YRAH-R2 (Bz-PGGYRAHAG-OH) / H-RAHAK(DNP)-OH; assay: Zinc dependence of the transamidation reaction, A2C8 and K7F11, YRAH; format: biochemical
Experimental: as §1

[5] = target: T5, Bz-PGGYRAHAG-OH (acyl donor) (Rattus norvegicus, UniProt P00763, A221T/D194K/E154Y/G219Q/H46F/K102D/K66E/L104F/N146E/Q197A/R101E/S195V/S215G/Y45H/Y65H); assay: Turnover rate of the hydrolysis reaction in the absence of a nucleophilic peptide; format: biochemical; conditions: Zinc ions: no; varying Bz-PGGYRAHAG-OH, 2 μM trypsin variant, no nucleophilic peptide
T5 construct: made in house; host or cells: Pichia pastoris X-33
T5 sequence (P00763 24-246 Y45H/H46F/Y65H/K66E/R101E/K102D/L104F/N146E/E154Y/D194K/S195V/Q197A/S215G/G219Q/A221T): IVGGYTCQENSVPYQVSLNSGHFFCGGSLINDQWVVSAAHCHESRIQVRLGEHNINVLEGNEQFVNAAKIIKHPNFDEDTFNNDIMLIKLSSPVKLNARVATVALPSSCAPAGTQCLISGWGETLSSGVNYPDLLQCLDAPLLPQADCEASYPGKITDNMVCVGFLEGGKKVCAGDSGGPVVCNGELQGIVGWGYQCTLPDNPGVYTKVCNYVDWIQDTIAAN
Experimental: as §2

[6] = R1-YRAH-R2, 100 μM acyl donor, 200 μM acyl acceptor, absence of zinc ions

B1: Trypsiligase II (trypsin variant Y39H/Y59H/K60E/D189K) (protein)
chain: T1 sequence (P00763 24-246 Y45H/Y65H/K66E/D194K)
- product yield (%) ([1]; [Substrate] 15 μM Bz-PGGYRAHAG-OH, 30 μM H-RAHAK-OH): 3% and 3.2%
- kcat, AL^app (mkat/mol) ([1]; [Substrate] 15 μM): 0.33 mkat/mol
- kcat, AL^app/kcat, HL^app ([1]; [Substrate] 15 μM): 0.1
- kcat, HL^app (mkat/mol) ([1]; [Substrate] 15 μM): 2.84 mkat/mol
- product yield (%) ([1]; [Substrate] 250 μM Bz-PGGYRAHAG-OH, 500 μM H-RAHAK-OH): 17% and 17.3%
- kcat, AL^app (mkat/mol) ([1]; [Substrate] 250 μM): 14.40 mkat/mol
- kcat, AL^app/kcat, HL^app ([1]; [Substrate] 250 μM): 0.9
- kcat, HL^app (mkat/mol) ([1]; [Substrate] 250 μM): 16.00 mkat/mol
- turnover rate of hydrolysis relative to aminolysis ([1]; substrate concentration 15 μM): tenfold higher turnover rate
- product yield (%) [2]: 18.1%
- KM, acyl acceptor (µM); zinc ions (100 µM): no; transamidation with 250 µM Bz-PGGYRAHAG-OH as acyl donor (H-RAHAK(DNP)-OH): 1630 µM
- KM, acyl acceptor (µM); zinc ions (100 µM): yes; transamidation with 250 µM Bz-PGGYRAHAG-OH as acyl donor (H-RAHAK(DNP)-OH): 144 µM
- fold increase of KM of the nucleophilic peptide without zinc ions against with zinc ions (H-RAHAK(DNP)-OH): increased by a factor of 11 to 1630 µM
- kcat, HL (mkat/mol) [3]: 602.1 mkat/mol

B2: A2C8: Trypsiligase II + H40F, A55A, R96E, K97D, L99F, N143E, E151Y, S190V, Q192A, S214G, G219Q, A221T (protein)
chain: T5 sequence (P00763 24-246 Y45H/H46F/Y65H/K66E/R101E/K102D/L104F/N146E/E154Y/D194K/S195V/Q197A/S215G/G219Q/A221T)
- dependence for zinc ions ([4]; A2C8: substrates with YRAH and YRKH sequence, K7F11: YRAH substrate only): no dependence for zinc ions
- kcat, AL^app + Zn^2+ (mkat/mol) ([4]; R1-YRAH-R2, 100 μM acyl donor, 200 μM acyl acceptor, 2 μM trypsin variant, 0.1 mM ZnCl2): 9.46 mkat/mol
- product yield + Zn^2+ (%) ([4]; R1-YRAH-R2, 100 μM acyl donor, 200 μM acyl acceptor, 0.1 mM ZnCl2): 53.3%
- kcat, AL^app − Zn^2+ (mkat/mol) [4, 6]: 14.51 mkat/mol
- product yield − Zn^2+ (%) [4, 6]: 50.4%
- kcat, HL (mkat/mol) [5]: 86.6 mkat/mol
